Here are results for 8 substances from publication PMC10681173.

Usually stoichiometry N stands for the number of molecules, sites or subunits per partner or assembly.

Experiment [1] concerns the target K26D/N29D/A53D RMM triple mutant fused to GFP10 or GFP11 (tm-RMM-10/11). Kind of experiment: tripartite GFP (tGFP) reconstitution, in-cell fluorescence Fmax. As to conditions: data collected over 16 h, induction from the culture start, read off a plot.
Another experiment addresses His6-tagged RMM. Description: SEC; size-exclusion HPLC of TALON-purified samples.
Experiment [2] concerns the target RMM BMC-H with GFP10 or GFP11 at the N-terminus (N-ter tagged RMM-10/11). Kind of experiment: split reporter (BiFC, NanoBiT); tripartite GFP in E. coli BL21(DE3) cells; single vector, POI-10 and POI-11 on a bicistronic mRNA under T7p, GFP1-9 independent; IPTG 10 uM from the start, 37°C; Fmax relative to the RMM reference.
For experiment [3], the target named is RMM BMC-H fused to GFP10 or GFP11 through the long linkers Lk30/27 (RMM-10/RMM-11, reference pair). Described as above.
For experiment [4], the target named is SUMO-RMM fused to GFP10 or GFP11 through the long linkers Lk30/27 (SUMO-RMM-GFP10, SUMO-RMM-GFP11). The description is as above.
In experiment [5] the target is K26D RMM single mutant fused to GFP10 or GFP11 (sm-RMM-10/11). Kind of experiment: tripartite GFP (tGFP) reconstitution, in-cell fluorescence Fmax. As to conditions: data collected over 16 h, induction from the culture start, read off a plot.
In experiment [6] the target is RMM BMC-H fused to GFP10 or GFP11 through the long linkers Lk30/27 (RMM-10/RMM-11, reference pair). Kind of experiment: split reporter (BiFC, NanoBiT); tripartite GFP in E. coli BL21(DE3) cells; single vector, all three partners on a single tricistronic mRNA; IPTG 10 uM from the start, 37°C.
Experiment [7] has as its target N29D/A53D RMM double mutant fused to GFP10 or GFP11 (dm-RMM-10/11). Description: tripartite GFP (tGFP) reconstitution, in-cell fluorescence Fmax. As to conditions: data collected over 16 h, induction from the culture start, read off a plot.
Another experiment addresses SUMO-RMM-His6. Kind of experiment: SEC; size-exclusion HPLC of TALON-purified samples. In general terms: Size exclusion chromatography separates by hydrodynamic size, large species first.
Setting [8] is: bicistron organization mode, parent: est. 103.
Setting [9] is: independent-transcript organization mode, Lk30/27 linkers, parent: est. 100.
[10] abbreviates: tricistron organization mode, parent: est. 97.

“RMM BMC-H fused to GFP10 or GFP11 through the long linkers Lk30/27 (RMM-10/RMM-11, reference pair) K26D; N29D; A53D”: the percent of parent in experiment [1] (setting [8]) was 39%; in experiment [1] (setting [9]), 41%; in experiment [1] (setting [10]), 40%.
In the experiment with His6-tagged RMM, His6-tagged RMM (natural protein) returned a stoichiometry N of 6.
Consider “RMM BMC-H with GFP10 or GFP11 at the N-terminus (N-ter tagged RMM-10/11) (natural protein)”, for which the fold drop of fluorescence against C-ter tagged RMM in [2] was 3 fold.
Regarding “SUMO-RMM fused to GFP10 or GFP11 through the long linkers Lk30/27 (SUMO-RMM-GFP10, SUMO-RMM-GFP11)”, the Fmax as percent of the RMM pair reference in experiment [3] and in experiment [4] was 50 to 65% in each case.
For the substance “RMM BMC-H fused to GFP10 or GFP11 through the long linkers Lk30/27 (RMM-10/RMM-11, reference pair) K26D”, the percent of parent in experiment [5] (setting [8]) is 107%; in [5] (setting [9]), 119%.
For “RMM BMC-H fused to GFP10 or GFP11 through the long linkers Lk30/27 (RMM-10/RMM-11, reference pair) (natural protein)”, the results for the ratio of RMM versus BWI signals in [6] and in experiment [3] were 2 fold and 15 fold, respectively. The Fmax as percent of the RMM pair reference in experiment [4] stood at 115%.
For the substance “RMM BMC-H fused to GFP10 or GFP11 through the long linkers Lk30/27 (RMM-10/RMM-11, reference pair) N29D; A53D”, the percent of parent is 102% in experiment [7] (setting [8]), 124% in [7] (setting [9]) and 108% in experiment [7] (setting [10]).
SUMO-RMM-His6 gave a stoichiometry N with SUMO-RMM-His6 of 12.
